# Patent US20230295310A1 (ABCELLERA BIOLOGICS, published 2023)
# Biological target: human EGFR, C-terminal eGFP-tagged, on CHO-K1 cells (human, UniProt P00533 25-1210)
# Experiment: cell-based or functional assay
Binder,"EC50 CHO-K1 EGFR Low (nM); T cell activation bioassay, luciferase [nM]","EC50 CHO-K1 EGFR Med (nM); T cell activation bioassay, luciferase [nM]"
"GOMP001_bsAb_015 (bispecific antibody, human IgG1, kappa, L234A L235A) heavy 1: QVQLVQSGAEVKKPGASVKVSCKASGYTFTSHWMHWVRKAPGQGLEWIGEFNPSNGRTNYNEEFKSKATMTVDTSTNTAYMELSSLRSEDTAVYYCASRDYDYDGRYFDYWGQGTLVTVSSASTKGPSVFPLAPSSKSTSGGTAALGCLVADYFPEPVTVSWNSGALTSGVHTFPAVLQSSGLYSLSSVVTVPSSSLGTQTYICNVNHKPSNTKVDEKVEPKSCDKTHTCPPCPAPEAAGGPSVFLFPPKPKDTLMISRTPEVTCVVVDVSHEDPEVKFNWYVDGVEVHNAKTKPREEQYNSTYRVVSVLTVLHQDWLNGKEYKCKVSNKALPAPIEKTISKAKGQPREPQVYTLPPSREEMTDNQVSLTCLVKGFYPSDIAVEWESNGQPENNYKTTPPVLMSDGSFFLASKLTVDKSRWQQGNVFSCSVMHEALHNHYTQKSLSLSPG light 1: RIQMTQSPSSLSASVGDRVTITCSASSSVTYMYWYQDKPGKAPKLLIYDTSNLASGVPSRFSGSGSGTDYTFTISSLQPEDIATYYCQQWSSHIFTFGQGTKVEIKRTVAAPSVFIFPPSDKQLKSGTARVVCLLNNFYPREAKVQWKVDNALQSGNSQESVTEQDSKDSTYSLSSTLTLSKADYEKHKVYACEVTHQGLSSPVTKSFNRGEC heavy 2: QVQLVESGGGVVQPGRSLRLSCAASGFTFSGYGMHWVRYAPGKGLDWVAIIYYNGNNKYYADRVKGRFTISRDNSKNTLYLQMNSLRAEDTAVYYCARGGGYNWFDPWGRGTLVIVSSASTKGPSVFPLAPSSKSTSGGTAALGCLVKDYFPEPVTVSWNSGALTSGVHTFPAVLQSSGLYSLSSVVTVPSSSLGTQTYICNVNHKPSNTKVDKKVEPKSCDKTHTCPPCPAPEAAGGPSVFLFPPKPKDTLMISRTPEVTCVVVDVSHEDPEVKFNWYVDGVEVHNAKTKPREEQYNSTYRVVSVLTVLHQDWLNGKEYKCKVSNKALPAPIEKTISKAKGQPRRPRVYTLPPSREEMTKNQVSLVCLVKGFYPSDIAVEWESNGQPENNYKTTPPVLDSDGSFFLYSVLTVDKSRWQQGNVFSCSVMHEALHNHYTQKSLSLSPG light 2: not shown",0.515,0.0267
"GOMP001_bsAb_016 (bispecific antibody, human IgG1, kappa, L234A L235A) heavy 1: QVQLVESGGGVVQPGRSLRLSCAASGFTFSGYGMHWVRYAPGKGLDWVAIIYYNGNNKYYADRVKGRFTISRDNSKNTLYLQMNSLRAEDTAVYYCARGGGYNWFDPWGRGTLVIVSSASTKGPSVFPLAPSSKSTSGGTAALGCLVKDYFPEPVTVSWNSGALTSGVHTFPAVLQSSGLYSLSSVVTVPSSSLGTQTYICNVNHKPSNTKVDKKVEPKSCDKTHTCPPCPAPEAAGGPSVFLFPPKPKDTLMISRTPEVTCVVVDVSHEDPEVKFNWYVDGVEVHNAKTKPREEQYNSTYRVVSVLTVLHQDWLNGKEYKCKVSNKALPAPIEKTISKAKGQPRRPRVYTLPPSREEMTKNQVSLVCLVKGFYPSDIAVEWESNGQPENNYKTTPPVLDSDGSFFLYSVLTVDKSRWQQGNVFSCSVMHEALHNHYTQKSLSLSPG light 1: not shown heavy 2: QVQLVQSGAEVKKPGASVKVSCKASGYTFTSHWMHWVRYAPGQGLEWIGEFNPSNGRTNYNEKFKSKATMTVDTSTNTAYMELSSLRSEDTAVYYCASRDYDYDGRYFDYWGRGTLVTVSSASTKGPSVFPLAPSSKSTSGGTAALGCLVKDYFPEPVTVSWNSGALTSGVHTFPAVLQSSGLYSLSSVVTVPSSSLGTQTYICNVNHKPSNTKVDKKVEPKSCDKTHTCPPCPAPEAAGGPSVFLFPPKPKDTLMISRTPEVTCVVVDVSHEDPEVKFNWYVDGVEVHNAKTKPREEQYNSTYRVVSVLTVLHQDWLNGKEYKCKVSNKALPAPIEKTISKAKGQPRRPRVYTLPPSREEMTKNQVSLVCLVKGFYPSDIAVEWESNGQPENNYKTTPPVLDSDGSFFLYSVLTVDKSRWQQGNVFSCSVMHEALHNHYTQKSLSLSPG light 2: DIQMTQSPSSLSASVGDRVTITCSASSSVTYMYWYQRKPGDAPKLLIYDTSNLASGVPSRFSGSGSGTDYTFTISSLQPEDIATYYCQQWSSHIFTFGQGTKVEIKRTVAAPSVFIFPPSDEQLKSGTASVVCLLNNFYPREAKVQWKVDNALQSGNSQESVTEQDSKDSTYSLSSTLTLSKADYEKHKVYACEVTHQGLSSPVTKSFNRGEC",0.0531,0.00316
"GOMP001_bsAb_018 (bispecific antibody, human IgG1, kappa, L234A L235A) heavy 1: EVQLVESGGDLVQPGRSLRLSCAASGFTFDDCVIHWVRYAPGKGLEWVSGITWNSGRIGYADRVKGRFTISRDNAKNSLYLQMNSLRVEDTALYYCAKEGNYDFWSTYYRGYFDLWGRGTLVTVSSASTKGPSVFPLAPSSKSTSGGTAALGCLVKDYFPEPVTVSWNSGALTSGVHTFPAVLQSSGLYSLSSVVTVPSSSLGTQTYICNVNHKPSNTKVDKKVEPKSCDKTHTCPPCPAPEAAGGPSVFLFPPKPKDTLMISRTPEVTCVVVDVSHEDPEVKFNWYVDGVEVHNAKTKPREEQYNSTYRVVSVLTVLHQDWLNGKEYKCKVSNKALPAPIEKTISKAKGQPRRPRVYTLPPSREEMTKNQVSLVCLVKGFYPSDIAVEWESNGQPENNYKTTPPVLDSDGSFFLYSVLTVDKSRWQQGNVFSCSVMHEALHNHYTQKSLSLSPG light 1: DIQMTQSPSSLSASVGDRVTITCRASQGIRNDLGWYQRKPGDAPKRLIYAASSLQGGVPLRFSGSGSGTEFTLTISSLQPEDFATYYCLQHNSYPYTFGQGTKLEIKRTVAAPSVFIFPPSDEQLKSGTASVVCLLNNFYPREAKVQWKVDNALQSGNSQESVTEQDSKDSTYSLSSTLTLSKADYEKHKVYACEVTHQGLSSPVTKSFNRGEC heavy 2: QVQLVQSGAEVKKPGASVKVSCKASGYTFTSHWMHWVRYAPGQGLEWIGEFNPSNGRTNYNEKFKSKATMTVDTSTNTAYMELSSLRSEDTAVYYCASRDYDYDGRYFDYWGRGTLVTVSSASTKGPSVFPLAPSSKSTSGGTAALGCLVKDYFPEPVTVSWNSGALTSGVHTFPAVLQSSGLYSLSSVVTVPSSSLGTQTYICNVNHKPSNTKVDKKVEPKSCDKTHTCPPCPAPEAAGGPSVFLFPPKPKDTLMISRTPEVTCVVVDVSHEDPEVKFNWYVDGVEVHNAKTKPREEQYNSTYRVVSVLTVLHQDWLNGKEYKCKVSNKALPAPIEKTISKAKGQPRRPRVYTLPPSREEMTKNQVSLVCLVKGFYPSDIAVEWESNGQPENNYKTTPPVLDSDGSFFLYSVLTVDKSRWQQGNVFSCSVMHEALHNHYTQKSLSLSPG light 2: DIQMTQSPSSLSASVGDRVTITCSASSSVTYMYWYQRKPGDAPKLLIYDTSNLASGVPSRFSGSGSGTDYTFTISSLQPEDIATYYCQQWSSHIFTFGQGTKVEIKRTVAAPSVFIFPPSDEQLKSGTASVVCLLNNFYPREAKVQWKVDNALQSGNSQESVTEQDSKDSTYSLSSTLTLSKADYEKHKVYACEVTHQGLSSPVTKSFNRGEC",0.377,0.0442
"GOMP001_bsAb_019 (bispecific antibody, human IgG1, kappa, L234A L235A) heavy 1: QVQLVQSGAEVKKPGASVKVSCKASGYTFTSHWMHWVRKAPGQGLEWIGEFNPSNGRTNYNEEFKSKATMTVDTSTNTAYMELSSLRSEDTAVYYCASRDYDYDGRYFDYWGQGTLVTVSSASTKGPSVFPLAPSSKSTSGGTAALGCLVADYFPEPVTVSWNSGALTSGVHTFPAVLQSSGLYSLSSVVTVPSSSLGTQTYICNVNHKPSNTKVDEKVEPKSCDKTHTCPPCPAPEAAGGPSVFLFPPKPKDTLMISRTPEVTCVVVDVSHEDPEVKFNWYVDGVEVHNAKTKPREEQYNSTYRVVSVLTVLHQDWLNGKEYKCKVSNKALPAPIEKTISKAKGQPREPQVYTLPPSREEMTDNQVSLTCLVKGFYPSDIAVEWESNGQPENNYKTTPPVLMSDGSFFLASKLTVDKSRWQQGNVFSCSVMHEALHNHYTQKSLSLSPG light 1: RIQMTQSPSSLSASVGDRVTITCSASSSVTYMYWYQDKPGKAPKLLIYDTSNLASGVPSRFSGSGSGTDYTFTISSLQPEDIATYYCQQWSSHIFTFGQGTKVEIKRTVAAPSVFIFPPSDKQLKSGTARVVCLLNNFYPREAKVQWKVDNALQSGNSQESVTEQDSKDSTYSLSSTLTLSKADYEKHKVYACEVTHQGLSSPVTKSFNRGEC heavy 2: EVQLVDSGGGLVQPGGSLRLSCSGSGFTFSSYWMSWVRYAPGKGLEWVANIKQDGSQKYYVDRVKGRFTISRDNVKNSLYLQMNSLRVEDTAVYYCARDESSSWYWYFDLWGRGTLVTVSSASTKGPSVFPLAPSSKSTSGGTAALGCLVKDYFPEPVTVSWNSGALTSGVHTFPAVLQSSGLYSLSSVVTVPSSSLGTQTYICNVNHKPSNTKVDKKVEPKSCDKTHTCPPCPAPEAAGGPSVFLFPPKPKDTLMISRTPEVTCVVVDVSHEDPEVKFNWYVDGVEVHNAKTKPREEQYNSTYRVVSVLTVLHQDWLNGKEYKCKVSNKALPAPIEKTISKAKGQPRRPRVYTLPPSREEMTKNQVSLVCLVKGFYPSDIAVEWESNGQPENNYKTTPPVLDSDGSFFLYSVLTVDKSRWQQGNVFSCSVMHEALHNHYTQKSLSLSPG light 2: DIQMTQSPSTLSASVGDRVTLTCRASQNIVKWLAWYQRKPGDAPKLLIYKASSLESGVPSWFSGSGSGTEFTLTINSLQPDDFATYYCQQYYTYSRTFGQGTKVEIKRTVAAPSVFIFPPSDEQLKSGTASVVCLLNNFYPREAKVQWKVDNALQSGNSQESVTEQDSKDSTYSLSSTLTLSKADYEKHKVYACEVTHQGLSSPVTKSFNRGEC",4.27,0.257
"GOMP001_bsAb_017 (bispecific antibody, human IgG1, kappa, L234A L235A) heavy 1: QVQLVQSGAEVKKPGASVKVSCKASGYTFTSHWMHWVRKAPGQGLEWIGEFNPSNGRTNYNEEFKSKATMTVDTSTNTAYMELSSLRSEDTAVYYCASRDYDYDGRYFDYWGQGTLVTVSSASTKGPSVFPLAPSSKSTSGGTAALGCLVADYFPEPVTVSWNSGALTSGVHTFPAVLQSSGLYSLSSVVTVPSSSLGTQTYICNVNHKPSNTKVDEKVEPKSCDKTHTCPPCPAPEAAGGPSVFLFPPKPKDTLMISRTPEVTCVVVDVSHEDPEVKFNWYVDGVEVHNAKTKPREEQYNSTYRVVSVLTVLHQDWLNGKEYKCKVSNKALPAPIEKTISKAKGQPREPQVYTLPPSREEMTDNQVSLTCLVKGFYPSDIAVEWESNGQPENNYKTTPPVLMSDGSFFLASKLTVDKSRWQQGNVFSCSVMHEALHNHYTQKSLSLSPG light 1: RIQMTQSPSSLSASVGDRVTITCSASSSVTYMYWYQDKPGKAPKLLIYDTSNLASGVPSRFSGSGSGTDYTFTISSLQPEDIATYYCQQWSSHIFTFGQGTKVEIKRTVAAPSVFIFPPSDKQLKSGTARVVCLLNNFYPREAKVQWKVDNALQSGNSQESVTEQDSKDSTYSLSSTLTLSKADYEKHKVYACEVTHQGLSSPVTKSFNRGEC heavy 2: EVQLVESGGDLVQPGRSLRLSCAASGFTFDDCVIHWVRYAPGKGLEWVSGITWNSGRIGYADRVKGRFTISRDNAKNSLYLQMNSLRVEDTALYYCAKEGNYDFWSTYYRGYFDLWGRGTLVTVSSASTKGPSVFPLAPSSKSTSGGTAALGCLVKDYFPEPVTVSWNSGALTSGVHTFPAVLQSSGLYSLSSVVTVPSSSLGTQTYICNVNHKPSNTKVDKKVEPKSCDKTHTCPPCPAPEAAGGPSVFLFPPKPKDTLMISRTPEVTCVVVDVSHEDPEVKFNWYVDGVEVHNAKTKPREEQYNSTYRVVSVLTVLHQDWLNGKEYKCKVSNKALPAPIEKTISKAKGQPRRPRVYTLPPSREEMTKNQVSLVCLVKGFYPSDIAVEWESNGQPENNYKTTPPVLDSDGSFFLYSVLTVDKSRWQQGNVFSCSVMHEALHNHYTQKSLSLSPG light 2: DIQMTQSPSSLSASVGDRVTITCRASQGIRNDLGWYQRKPGDAPKRLIYAASSLQGGVPLRFSGSGSGTEFTLTISSLQPEDFATYYCLQHNSYPYTFGQGTKLEIKRTVAAPSVFIFPPSDEQLKSGTASVVCLLNNFYPREAKVQWKVDNALQSGNSQESVTEQDSKDSTYSLSSTLTLSKADYEKHKVYACEVTHQGLSSPVTKSFNRGEC",0.945,0.102
